Laboratory results: EP4702992A1 (CSPC Megalith Biopharmaceutical Co., Ltd., dated 2024)

B1: Farletuzumab (antibody, human IgG1, kappa)
heavy: not shown
light: DIQLTQSPSSLSASVGDRVTITCSVSSSISSNNLHWYQQKPGKAPKPWIYGTSNLASGVPSRFSGSGSGTDYTFTISSLQPEDIATYYCQQWSSYPYMYTFGQGTKVEIKRTVAAPSVFIFPPSDEQLKSGTASVVCLLNNFYPREAKVQWKVDNALQSGNSQESVTEQDSKDSTYSLSSTLTLSKADYEKHKVYACEVTHQGLSSPVTKSFNRGEC
notes: Naked anti-FRα antibody
B2: F-ADC55-1-8 (antibody, human IgG1, kappa)
heavy: not shown
light: B1 light
modifications: linker-drug LD55-1 (exatecan payload) conjugated to sulfhydryls of reduced interchain disulfide cysteines; average DAR 7.6 per antibody
notes: Antibody-drug conjugate: farletuzumab + LD55-1, DAR 7.6
B3: Farletuzumab-FcS (antibody, human IgG1, kappa, L234A L235A)
heavy: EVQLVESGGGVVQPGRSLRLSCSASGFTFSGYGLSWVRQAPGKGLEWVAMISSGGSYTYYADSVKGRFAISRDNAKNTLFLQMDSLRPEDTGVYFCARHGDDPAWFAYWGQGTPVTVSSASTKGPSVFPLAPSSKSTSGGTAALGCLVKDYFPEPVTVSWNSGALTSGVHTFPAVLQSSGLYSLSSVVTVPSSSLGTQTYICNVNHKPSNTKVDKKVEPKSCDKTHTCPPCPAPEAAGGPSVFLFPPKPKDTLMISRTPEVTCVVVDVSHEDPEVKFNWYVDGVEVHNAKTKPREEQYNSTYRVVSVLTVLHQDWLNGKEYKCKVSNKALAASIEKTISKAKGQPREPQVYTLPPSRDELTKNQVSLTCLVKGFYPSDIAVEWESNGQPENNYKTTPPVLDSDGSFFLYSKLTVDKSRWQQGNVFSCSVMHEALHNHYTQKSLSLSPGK
light: B1 light
notes: also called Farletuzumab-FS
B4: 33B (antibody, human IgG1, kappa, L234A L235A, V domains shown)
VH: QVQLVQSGAEVKKPGASVKVSCKASGYTFTDYYMKWVRQAPGQRLEWMGAFNLNNGDTFYNQKFKGRVTITRDTSASTAYMELSSLRSEDTAVYYCARDVYGYGDYWGQGTSVTVSS
VL: DIVMTQSPDSLAVSLGERATINCRASKSVSTSGYSYMHWYQQKPGQPPKLLIYLASNLDSGVPDRFSGSGSGTDFTLTISSLQAEDVAVYYCQHSRELPYTFGGGTKLEIKR
notes: Naked anti-DLL3 antibody
B5: D-ADC2-1-8 (antibody, human IgG1, kappa, L234A L235A, V domains shown)
VH: B4 VH
VL: B4 VL
modifications: linker-drug LD2-1 (exatecan payload) conjugated to sulfhydryls of reduced interchain disulfide cysteines; average DAR 8.0 per antibody
notes: Antibody-drug conjugate: 33B + LD2-1, DAR 8.0
B6: D-ADC55-1-8 (antibody, human IgG1, kappa, L234A L235A, V domains shown)
VH: B4 VH
VL: B4 VL
modifications: linker-drug LD55-1 (exatecan payload) conjugated to sulfhydryls of reduced interchain disulfide cysteines; average DAR 8.0 per antibody
notes: Antibody-drug conjugate: 33B + LD55-1, DAR 8.0
B7: D-ADC12-1-8 (antibody, human IgG1, kappa, L234A L235A, V domains shown)
VH: B4 VH
VL: B4 VL
modifications: linker-drug LD12-1 (exatecan payload) conjugated to sulfhydryls of reduced interchain disulfide cysteines; average DAR 8.0 per antibody
notes: Antibody-drug conjugate: 33B + LD12-1, DAR 8.0
B8: D-BATADC (antibody, human IgG1, kappa, L234A L235A, V domains shown)
VH: B4 VH
VL: B4 VL
modifications: control linker-drug BATLD conjugated to the antibody; average DAR 7.7 per antibody
B9: B-ADC55-1-6 (antibody, human IgG1, kappa, L234A L235A, V domains shown)
VH: QVQLVQSGAEVKKPGASVKVSCKASGYTFTDYFMNWVRQAPGQGLEWMGDVNPKTGSPSYNQKFKGRVTMTRDTSTSTVYMELSSLRSEDTAVYYCARRYGFLYSMDYWGQGTSVTVSS
VL: DIQMTQSPSSLSASVGDRVTITCRASQDISNYLNWYQQKPGKAVKVLIYYTSRLHSGVPSRFSGSGSGTDFTFTISSLQPEDIATYYCQQGNTHPFTFGGGTKVEIKR
modifications: linker-drug LD55-1 (exatecan payload) conjugated to sulfhydryls of reduced interchain disulfide cysteines; average DAR 5.7 per antibody
notes: Antibody-drug conjugate: 43B + LD55-1, DAR 5.7
B10: B-ADC12-1-6 (antibody, human IgG1, kappa, L234A L235A, V domains shown)
VH: B9 VH
VL: B9 VL
modifications: linker-drug LD12-1 (exatecan payload) conjugated to sulfhydryls of reduced interchain disulfide cysteines; average DAR 6.0 per antibody
notes: Antibody-drug conjugate: 43B + LD12-1, DAR 6.0
B11: B-ADC2-1-6 (antibody, human IgG1, kappa, L234A L235A, V domains shown)
VH: B9 VH
VL: B9 VL
modifications: linker-drug LD2-1 (exatecan payload) conjugated to sulfhydryls of reduced interchain disulfide cysteines; average DAR 5.6 per antibody
notes: Antibody-drug conjugate: 43B + LD2-1, DAR 5.6
B12: DSADC (antibody, V domains shown)
VH: QVQLVQSGAEVKKPGSSVKVSCKASGYTFTNYVMHWVRQAPGQGLEWMGYINPYNDDVKYNEKFKGRVTITADESTSTAYMELSSLRSEDTAVYYCARWGYYGSPLYYFDYWGQGTLVTVSS
VL: EIVLTQSPATLSLSPGERATLSCRASSRLIYMHWYQQKPGQAPRPLIYATSNLASGIPARFSGSGSGTDFTLTISSLEPEDFAVYYCQQWNSNPPTFGQGTKVEIKR
modifications: control linker-drug per CN104755494A conjugated to the antibody; average DAR 3.9 per antibody
notes: Control anti-B7H3 ADC; the tie of DSADC to M30 is by position and a drawing only; also called M30 antibody conjugate

biological target: T1, FOLR1 antigen (Sino Biological, Cat. No. 11241-H08H) (UniProt P15328 25-233); experiment: ELISA, FOLR1 coated at 0.1 µg/mL, anti-human IgG-HRP detection
T1 construct: Bought protein coated on the ELISA plate; also called FRα
T1 sequence (P15328 25-233 limits assumed): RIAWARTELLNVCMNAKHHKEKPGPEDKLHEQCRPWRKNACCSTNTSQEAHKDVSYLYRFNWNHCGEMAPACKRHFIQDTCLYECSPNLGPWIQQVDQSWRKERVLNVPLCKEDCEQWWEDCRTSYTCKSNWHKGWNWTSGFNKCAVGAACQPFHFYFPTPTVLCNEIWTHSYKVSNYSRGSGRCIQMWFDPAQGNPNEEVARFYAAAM

B1 and B2 are within 1.5-fold of each other in EC50: 26.1 pM for the first, 36.9 pM for the second.

With B3 the EC50 was 19.9 pM.

biological target: T2, recombinant human DLL3 protein (Kactus Biosystems, Cat. No. DLL-HM103) (human, UniProt Q9NYJ7 27-492, limits assumed); experiment: ELISA, human DLL3 coated at 0.1 µg/mL, absorbance at 450 nm
T2 construct: Bought protein coated on the ELISA plate; also called Human DLL3 proteins
T2 sequence (looked up): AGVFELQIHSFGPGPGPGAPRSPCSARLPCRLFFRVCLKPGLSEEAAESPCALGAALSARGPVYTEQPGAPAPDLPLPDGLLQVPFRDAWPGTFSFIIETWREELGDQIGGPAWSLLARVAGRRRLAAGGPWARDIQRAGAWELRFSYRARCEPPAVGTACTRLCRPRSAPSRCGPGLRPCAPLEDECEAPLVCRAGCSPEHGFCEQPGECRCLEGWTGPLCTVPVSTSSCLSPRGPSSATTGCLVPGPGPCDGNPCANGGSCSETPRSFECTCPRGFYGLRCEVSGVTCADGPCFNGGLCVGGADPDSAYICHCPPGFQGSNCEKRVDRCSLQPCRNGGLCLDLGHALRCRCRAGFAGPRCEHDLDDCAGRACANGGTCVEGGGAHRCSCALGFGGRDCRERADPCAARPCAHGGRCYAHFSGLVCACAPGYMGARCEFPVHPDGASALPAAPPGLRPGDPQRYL

Compared with B4, B5 is 2.5-fold higher in EC50: 1.87 pM for the first, 4.64 pM for the second. The first is the more potent here.

B6 and B7 are within 1.5-fold of each other in EC50: 6.28 pM for the first, 5.84 pM for the second.

B8 gave an EC50 of 5.27 pM.

B4 and B5 are the same in Emax: 2.5 for the first, 2.5 for the second.

Compared with B6, B7 is higher in Emax: 2.5 for the first, 2.6 for the second.

For B8, the Emax was 2.6.

biological target: T3, B7H3 antigen on the surface of A375 cells (human, UniProt Q5ZPR3 29-534); experiment: flow cytometry (MFI) on B7H3-positive A375 cells, anti-human Alexa Fluor 488
T3 construct: whole, on cells
T3 sequence (looked up): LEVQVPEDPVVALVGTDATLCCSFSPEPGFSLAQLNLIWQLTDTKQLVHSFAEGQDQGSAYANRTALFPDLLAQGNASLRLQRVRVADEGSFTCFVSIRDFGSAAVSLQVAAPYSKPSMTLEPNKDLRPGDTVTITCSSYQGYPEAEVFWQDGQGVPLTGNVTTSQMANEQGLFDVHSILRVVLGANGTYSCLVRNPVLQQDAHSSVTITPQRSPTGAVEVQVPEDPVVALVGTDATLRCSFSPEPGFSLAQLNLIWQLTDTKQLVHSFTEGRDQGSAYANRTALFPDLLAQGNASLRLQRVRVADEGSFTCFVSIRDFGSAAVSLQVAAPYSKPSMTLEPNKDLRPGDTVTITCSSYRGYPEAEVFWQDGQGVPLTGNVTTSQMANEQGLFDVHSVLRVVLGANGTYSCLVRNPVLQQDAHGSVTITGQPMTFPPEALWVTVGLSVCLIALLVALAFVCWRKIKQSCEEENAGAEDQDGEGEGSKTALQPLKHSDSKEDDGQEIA

B9 and B10 are within 1.5-fold of each other in EC50: 0.0378 µg/mL for the first, 0.04 µg/mL for the second.

First: B11
Second: B12
The EC50 of the first is 2.2-fold lower: 0.0416 µg/mL for the first, 0.0925 µg/mL for the second.
